Assay [1] addresses AM14 IgG (human). As to the kind of experiment: ELISA.
In assay [2] the target is purified prefusion F N426D (respiratory syncytial virus, strain A2 | not stated) (UniProt P03420). The assay can be described thus: ELISA. A general note: ELISA stands for enzyme-linked immunosorbent assay.
The target in assay [3] is biotinylated prefusion RSV F DS-Cav1, subtype B (respiratory syncytial virus, subtype B | not stated) (UniProt P13843).
Assay [4] shares this target. As to the kind of experiment: Luminex bead binding assay; biotinylated RSV F proteins coupled to avidin-coated MagPlex beads (1 μg per 50,000 beads); IgG in 10-fold serial dilutions 1 μM to 0.1 pM; PE-conjugated anti-human IgG Fc; PBS, 0.1% BSA, 0.05% Tween 20.
For assay [5], the target named is full-length prefusion F N426D (RSV F residues 1-574 with the DS-Cav1 stabilizing mutations and N426D (respiratory syncytial virus, strain not stated) (UniProt P03420)). As to the kind of experiment: flow cytometry on cells. For orientation: A flow cytometer gives signals particle by particle.

Here are results for two substances from publication PMC4498696.

AM14 IgG (human), sequence (heavy, as listed by the source, chain 1 of 2): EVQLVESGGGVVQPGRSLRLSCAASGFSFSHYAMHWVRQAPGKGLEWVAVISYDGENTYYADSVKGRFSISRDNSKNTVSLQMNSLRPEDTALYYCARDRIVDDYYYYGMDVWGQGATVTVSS
AM14 IgG (human), sequence (light, as listed by the source, chain 2 of 2): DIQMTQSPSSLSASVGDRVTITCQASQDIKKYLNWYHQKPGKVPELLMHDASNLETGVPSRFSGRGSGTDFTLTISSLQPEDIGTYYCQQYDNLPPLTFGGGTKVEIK

In assay [1], “cleaved monomeric RSV F (residues 1-524, without the foldon trimerization motif) (from UniProt P03420 26-109; P03420 26-524) (domain or fragment)” yielded a fold decrease in other of 100 fold.

In general, EC50 refers to the midpoint of the concentration-response curve. A lower EC50 goes with an effect from little substance. Consider AM14 IgG (antibody), for which the fold reduction of binding against wild-type prefusion F in assay [2] turned out to be 100 fold; in assay [5], 4 fold. Further, the IC50 of neutralisation of RSV subtype B strain 9320 (F of the virus), microneutralization on HEp-2 cells in assay [3] worked out at 0.0046 µg/mL. Besides, in assay [3], the IC50 of neutralisation of RSV subtype B strain 18537 (F of the virus), microneutralization on HEp-2 cells came out at 0.0308 µg/mL. Moreover, in assay [4], the 50% effective concentration (EC50) came out at 0.18 nM.
